Results: US20260027179A1 (UNIVERSITY OF BRITISH COLUMBIA, published 2026)

Target: T1, Purified recombinant human α-synuclein (N-terminal histidine tagged, Sigma, S7820-500UG) (human, UniProt P37840 1-140)
T1 construct: also called immobilized α-synuclein; not shown: N-terminal histidine tag
Experiment: Biacore 3000 SPR, α-synuclein immobilized on CM5 chip, peptide 0.20-12.50 µM injected

B1: Tat-βsyn-degron peptide (peptide)
peptide: YGRKKRRQRRRRTKSGVYLVGRRRG
notes: Chemically synthesized by GL Biochem; also called α-synuclein targeting peptide
Q: Does B1 bind?
A: Result: binds
